Reference: publication PMC314469, “Protein Interaction Networks by Proteome Peptide Scanning” (PLoS Biology, 2004)

T1: Boi1 SH3 (BOI1_YEAST), P38041
T1 chain: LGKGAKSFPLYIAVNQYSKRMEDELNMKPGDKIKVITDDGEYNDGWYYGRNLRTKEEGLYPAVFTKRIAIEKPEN

T2: Boi2 SH3 (BOI2_YEAST), P39969
T2 chain: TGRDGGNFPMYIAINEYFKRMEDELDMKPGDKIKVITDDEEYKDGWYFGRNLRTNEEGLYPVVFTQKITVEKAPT

T3: Rvs167 SH3 (RV167_YEAST), P39743
T3 chain: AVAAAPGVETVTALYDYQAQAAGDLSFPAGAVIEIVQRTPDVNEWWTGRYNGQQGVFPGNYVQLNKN

T4: Yfr024 SH3 (LSB3_YEAST), P43603
T4 chain: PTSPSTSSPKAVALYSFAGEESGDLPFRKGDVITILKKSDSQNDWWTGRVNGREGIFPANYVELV

T5: Yhr016c SH3 (YSC84_YEAST), P32793
T5 chain: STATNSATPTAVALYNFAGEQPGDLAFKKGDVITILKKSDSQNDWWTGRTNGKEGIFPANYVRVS


Key:
Test in all cases: SPOT array
[1] = target: T1, Boi1 SH3 (BOI1_YEAST), P38041
[2] = target: T2, Boi2 SH3 (BOI2_YEAST), P39969
[3] = target: T3, Rvs167 SH3 (RV167_YEAST), P39743
[4] = target: T4, Yfr024 SH3 (LSB3_YEAST), P43603
[5] = target: T5, Yhr016c SH3 (YSC84_YEAST), P32793

| Binder | normalised SPOT signal, Boehringer light units (BLU); mean over the file's lines of this peptide [1] | normalised SPOT signal, Boehringer light units (BLU); mean over the file's lines of this peptide [2] | normalised SPOT signal, Boehringer light units (BLU); mean over the file's lines of this peptide [3] | normalised SPOT signal, Boehringer light units (BLU); mean over the file's lines of this peptide [4] | normalised SPOT signal, Boehringer light units (BLU); mean over the file's lines of this peptide [5] |
| --- | --- | --- | --- | --- | --- |
| FSHPLSPLKSNFID [YGL177W 74-87] | 61.5 | 44.1 | 91.8 | 217 | 0 |
| EVTPEEPSKKIRTS [YML071C 500-513] | 52.7 | 20.1 | 15.5 | 15 | 124 |
| FENPTIPKKSYSEF [YPR045C 291-304] | 78.2 | 55.1 | 47.2 | 50.5 | 43.7 |
| EYHPIKPLRSSSST [YDL180W 234-247] | 56.4 | 29.9 | 48.4 | 3150 | 762 |
| ENYPSPPYKIIILD [YJR068W 127-140] | 160 | 34.9 | 35.7 | 56.9 | 86.3 |
| EYSPLVPSKMSADK [YBR044C 356-369] | 103 | 56.6 | 202 | 370 | 177 |
| ETVPTEPTRYNYQN [YER132C 1359-1372] | 112 | 55.5 | 26.9 | 24.9 | 53.7 |
| ESLPRTPTKGRSTQ [YPR141C 2-15] | 455 | 26.1 | 34.8 | 2200 | 211 |
| EVIPSWPRRGKVEE [YNL022C 436-449] | 51.2 | 26 | 34.7 | 923 | 138 |
| EVSPVEPKRTENER [YDR507C 687-700] | 80.7 | 41.7 | 47.2 | 72 | 83.5 |
| FDFPLSPVKHENPT [YBR098W 196-209] | 70.3 | 2.4 | 28.7 | 53 | 135 |
| ERDPNMPKRPTNAY [YDL002C 88-101] | 125 | 31.7 | 64.8 | 1640 | 339 |
| EVTPKVPERPSRRK [YIR003W 4-17] | 5160 | 493 | 2090 | 59100 | 18500 |
| EVYPIEPPKVVSLK [YLR306W 88-101] | 48.7 | 26.4 | 9 | -0 | 85.5 |
| EYFPISPEKKEEME [YGR237C 591-604] | 120 | 15.3 | 32.5 | 0 | 242 |
| EVTPEEPSKSIDNK [YML071C 475-488] | 25.1 | 0 | 19.5 | 0 | 105 |
| ERDPNAPKKPLTVF [YDR174W 100-113] | 75.6 | 34.6 | 59.7 | 94.1 | 274 |
